Measurements as given in article PMC8373123.

Target: human NPC1L1 (Niemann-Pick C1-like 1), wild type, C-terminal Flag tag (human) (UniProt Q9UHC9)
Assay: cryo-EM structure

stoichiometry N: 2
Substance: human NPC1L1 (Niemann-Pick C1-like 1), wild type, C-terminal Flag tag (from UniProt Q9UHC9-2 22-1332) (natural protein)
